Experimental findings from patent US9539289B2, “Immunostimulatory compositions and methods of manufacture” (APIMED MEDICAL HONEY LIMITED, priority 2012, dated 2017) are described below.

One assay concerns monocyte cell line. Briefly: TNF-α response of a monocyte cell culture after 4 hours of treatment (Examples 3, 5-8). Type of assay: cell-based. The following applies: 100 ng/ml dose. On the procedure:
The immunostimulatory effect was then tested using a variety of samples. Prior to the trial a monocyte cell culture was produced in order to eliminate any natural variation errors. The monocyte culture was then stimulated using a variety of agents and TNF-α concentration measured after 4 hours of treatment with the various reagents.
LPS was used as a positive control being a known and strongly significant stimulant. Cells alone were used as a negative control.
The immunostimulatory effect was tested further using a variety of samples including royal jelly. Prior to the trial a monocyte cell culture was produced in order to eliminate any natural variation errors. The monocyte culture was then stimulated using a variety of agents and TNF-α concentration measured after 4 hours of treatment with the various reagents.
The immunostimulatory effect was tested further using a variety of honey derived AGP compounds and apisimin. […] The monocyte culture was then stimulated using a variety of agents and TNF-α concentration measured after 4 hours of treatment with the various reagents.
The immunostimulatory effect was tested further using a honey derived AGP compound, apisimin and Polymyxin B acting as an LPS inhibitor. […] The monocyte culture was then stimulated using a variety of agents and TNF-α concentration measured after 4 hours of treatment with the various reagents. […]

The next assay addresses T1, apisimin (Apis mellifera, UniProt Q8ISL8).
T1 sequence (Q8ISL8 25-78): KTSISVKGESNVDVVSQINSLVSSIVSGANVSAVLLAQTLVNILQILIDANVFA
Briefly: Dot blot assay of apisimin self binding versus insulin and bovine albumin (Example 1, FIG. 1). The following applies: darker colour means greater binding. On the procedure: FIG. 1 illustrates the results of a dot blot assay to test the self binding properties of apisimin against two other proteins not know to be self binding being insulin and bovine albumin. 1=apisimin, 2=insulin, 3=bovine albumin. The darker the colour the greater the degree of binding;
An experiment was conducted to confirm the self-binding nature of apisimin versus other peptides being insulin and bovine albumin.

Turning to lipopolysaccharide [LPS], in the assay on monocyte cell line, the TNF-α response entry is recorded as “approximately 1700 μg/ml”. For “insulin: comparison protein not known to be self binding”, the “self binding (dot blot colour)” value with apisimin is recorded as “weak or not self binding”.

On to “albumin: bovine albumin, comparison protein not known to be self binding”, for which the “self binding (dot blot colour)” value with apisimin is on record as “weak or not self binding”.
